Experimental data: patent publication US20200262920A1 (AMPHIVENA THERAPEUTICS, published 2020)
Changes are numbered by the printed parent chain.

B1: CD33/CD3 2×2 T-cell engager 05 (bispecific antibody)
chain: DIQMTQSPSSLSASVGDRVTITCRSSTGAVTTSNYANWVQQKPGKAPKGLIGGTNKRAPGVPARFSGSGSGTDFTLTISSLQPEDFATYYCALWYSNLWVFGQGTKVEIKGGSGGSQVQLVQSGAEVKKPGASVKVSCKASGYTFTSYDINWVRQAPGQGLEWMGWMNPNSGNTGFAQKFQGRVTMTRDTSTSTVYMELSSLRSEDTAVYYCARDRANTDYSFGMDVWGQGTLVTVSSGGSGGQSVLTQPPSASGTPGQRVTISCSGSRSNIGSNTVNWYQQLPGTAPKLLIYGNNQRPSGVPDRFSGSKSGTSASLAISGLQSEDEADYYCATWDDSLIGWVFGGGTKLTVLGGSGGSEVQLVESGGGLVQPGGSLRLSCAASGFTFSTYAMNWVRQAPGKGLEWVGRIRSKYNNYATYYADSVKDRFTISRDDSKNSLYLQMNSLKTEDTAVYYCARHGNFGNSYVSWFAYWGQGTLVTVSSAAAGSHHHHHH
notes: Non-covalent homodimer; also called 2×2 T-cell engager 5
B2: CD33/CD3 2×2 T-cell engager 06 (bispecific antibody)
chain: B1 chain with F223L
notes: Non-covalent homodimer; also called 2×2 T-cell engager 6
B3: CD33/CD3 2×2 T-cell engager 10 (bispecific antibody)
chain: DIQMTQSPSSLSASVGDRVTITCRSSTGAVTTSNYANWVQQKPGKAPKGLIGGTNKRAPGVPSRFSGSLIGDKATLTISSLQPEDFATYYCALWYSNLWVFGQGTKVEIKGGSGGSQVQLVQSGAEVKKPGASVKVSCKASGYTFTSYDINWVRQAPGQGLEWMGWMNPNSGNTGFAQKFQGRVTMTRDTSTSTVYMELSSLRSEDTAVYYCARDRANTDYSFGMDVWGQGTLVTVSSGGSGQSVLTQPPSASGTPGQRVTISCSGSRSNIGSNTVNWYQQLPGTAPKLLIYGNNQRPSGVPDRFSGSKSGTSASLAISGLQSEDEADYYCATWDDSLIGWVFGGGTKLTVLGGSGGSEVQLVESGGGLVQPGGSLRLSCAASGFTFSTYAMNWVRQAPGKGLEWVGRIRSKYNNYATYYADSVKDRFTISRDDSKNSLYLQMNSLKTEDTAVYYCARHGNFGNSYVSWFAYWGQGTLVTVSSAAAGSHHHHHH
notes: Non-covalent homodimer
B4: CD33/CD3 2×2 T-cell engager 03 (bispecific antibody)
chain: B3 chain with S63A, L69G, I70S, D72T, K73D, A74F
notes: Non-covalent homodimer; also called 2×2 T-cell engager 3
B5: CD33/CD3 2×2 T-cell engager 09 (bispecific antibody)
chain: B3 chain with Y221F, F223Y
notes: Non-covalent homodimer; also called 2×2 T-cell engager 9
B6: CD33/CD3 2×2 T-cell engager 11 (bispecific antibody)
chain: B3 chain with F223L
notes: Non-covalent homodimer
B7: CD33/CD3 2×2 T-cell engager 04 (bispecific antibody)
chain: B3 chain with S63A, L69G, I70S, D72T, K73D, A74F, F223L
notes: Non-covalent homodimer; also called 2×2 T-cell engager 4
B8: CD33/CD3 2×2 T-cell engager 15 (bispecific antibody)
chain: B3 chain with G49A, W469Y
notes: Non-covalent homodimer
B9: CD33/CD3 2×2 T-cell engager 13 (bispecific antibody)
chain: B3 chain with D72T, K73D, A74F, N218V, S222Y, F223Y
notes: Non-covalent homodimer
B10: CD33/CD3 2×2 T-cell engager 02 (bispecific antibody)
chain: B3 chain with S63A, L69G, I70S, D72T, K73D, A74F, N218V, S222Y, F223Y
notes: Non-covalent homodimer; also called 2×2 T-cell engager 2
B11: CD33/CD3 2×2 T-cell engager 01 (bispecific antibody)
chain: B3 chain with S63A, L69G, I70S, D72T, K73D, A74F, Y221F, F223Y
notes: Non-covalent homodimer; also called 2×2 T-cell engager 1
B12: CD33/CD3 2×2 T-cell engager 08 (bispecific antibody)
chain: QSVLTQPPSASGTPGQRVTISCSGSRSNIGSNTVNWYQQLPGTAPKLLIYGNNQRPSGVPDRFSGSKSGTSASLAISGLQSEDEADYYCATWDDSLIGWVFGGGTKLTVLGGSGGSEVQLVESGGGLVQPGGSLRLSCAASGFTFSTYAMNWVRQAPGKGLEWVGRIRSKYNNYATYYADSVKDRFTISRDDSKNSLYLQMNSLKTEDTAVYYCARHGNFGNSYVSYFAYWGQGTLVTVSSGGSGGSDIQMTQSPSSLSASVGDRVTITCRSSTGAVTTSNYANWVQQKPGKAPKALIGGTNKRAPGVPSRFSGSLIGDKATLTISSLQPEDFATYYCALWYSNLWVFGQGTKVEIKGGSGGSQVQLVQSGAEVKKPGASVKVSCKASGYTFTSYDINWVRQAPGQGLEWMGWMNPNSGNTGFAQKFQGRVTMTRDTSTSTVYMELSSLRSEDTAVYYCARDRANTDFSYGMDVWGQGTLVTVSSAAAGSHHHHHH
notes: Non-covalent homodimer; also called 2×2 T-cell engager 8

What follows are binders tested against T1, human CD33 (human, UniProt P20138 18-364) (assay: flow cytometry titration, HL-60 cells).
T1 construct: whole, on cells; also called huCD33; CD33 on HL-60, KG-1, KG-1a, U-937 cells
Experimental: (§1) Cells were incubated with 100 μL of serial dilutions of CD33/CD3 2×2 T-cell engagers. After washing three times with FACS buffer the cells were incubated with 0.1 mL of 10 μg/mL mouse monoclonal anti-His antibody in the same buffer for 45 min on ice. After a second washing cycle, the cells were incubated with 0.1 mL of 15 μg/mL FITC-conjugated goat anti-mouse IgG antibodies under the same conditions as before. As a control, cells were incubated with the anti-His IgG followed by the FITC-conjugated goat anti-mouse IgG antibodies without anti-CD33 2×2 T-cell engagers. The cells were then washed again and resuspended in 0.2 mL of FACS buffer containing 2 μg/mL propidium iodide (PI) in order to exclude dead cells. The fluorescence of 1×10⁴ living cells was measured using a Beckman-Coulter FC500 MPL flow cytometer using the MXP software (Beckman-Coulter, Krefeld, Germany) or a Millipore Guava EasyCyte flow cytometer using the Incyte software (Merck Millipore, Schwalbach, Germany). Mean fluorescence intensities of the cell samples were calculated using CXP software (Beckman-Coulter, Krefeld, Germany) or Incyte software (Merck Millipore, Schwalbach, Germany). After subtracting the fluorescence intensity values of the cells stained with the secondary and tertiary reagents alone the values were used for calculation of the KD values with the equation for one-site binding (hyperbola) of the GraphPad Prism (version 6.00 for Windows, GraphPad Software, La Jolla Calif. USA). […]

T1 sequence (P20138 18-364): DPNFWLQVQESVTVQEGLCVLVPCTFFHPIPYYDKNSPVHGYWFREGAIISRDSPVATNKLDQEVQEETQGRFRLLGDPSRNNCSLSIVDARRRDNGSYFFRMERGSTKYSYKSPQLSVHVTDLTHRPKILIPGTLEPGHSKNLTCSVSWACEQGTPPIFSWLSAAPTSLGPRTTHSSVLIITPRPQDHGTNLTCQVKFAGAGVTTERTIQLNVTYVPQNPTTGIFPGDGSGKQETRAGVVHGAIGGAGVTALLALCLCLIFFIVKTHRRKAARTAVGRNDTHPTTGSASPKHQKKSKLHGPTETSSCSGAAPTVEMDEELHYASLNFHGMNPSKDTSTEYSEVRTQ

Binder | Kd [nM]
B1 | 1
B2 | 0.4
B3 | 0.5
B4 | 1.1
B5 | 0.5
B6 | 0.3
B7 | 0.5
B8 | 0.4
B9 | 0.2
B10 | 0.2
B11 | 0.6
B12 | 0.3

The binders below were run against T1, human CD33 (assay: flow cytometry, HL-60 cells).

Binder | Kd [nM]
B1 | 1
B2 | 0.4
B3 | 0.5
B4 | 1.1
B5 | 0.5
B6 | 0.3
B7 | 0.5
B8 | 0.4
B9 | 0.2
B10 | 0.2
B11 | 0.6

The binders below were run against T2, human CD3 (human, UniProt P07766 23-207; P09693 23-182; P04234 22-171; P20963 22-164) (assay: cell-based or functional assay).
T2 sequence (P07766 23-207, chain 1 of 4): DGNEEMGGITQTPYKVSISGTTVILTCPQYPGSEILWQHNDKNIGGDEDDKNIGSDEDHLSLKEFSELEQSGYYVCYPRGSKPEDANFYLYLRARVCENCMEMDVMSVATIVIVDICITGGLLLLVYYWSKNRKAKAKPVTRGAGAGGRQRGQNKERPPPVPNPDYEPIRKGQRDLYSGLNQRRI
T2 sequence (P09693 23-182, chain 2 of 4): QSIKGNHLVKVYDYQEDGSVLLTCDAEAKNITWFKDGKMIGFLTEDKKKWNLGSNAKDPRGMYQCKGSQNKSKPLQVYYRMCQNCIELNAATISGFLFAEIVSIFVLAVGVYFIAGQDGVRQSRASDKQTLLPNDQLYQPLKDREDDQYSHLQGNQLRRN
T2 sequence (P04234 22-171, chain 3 of 4): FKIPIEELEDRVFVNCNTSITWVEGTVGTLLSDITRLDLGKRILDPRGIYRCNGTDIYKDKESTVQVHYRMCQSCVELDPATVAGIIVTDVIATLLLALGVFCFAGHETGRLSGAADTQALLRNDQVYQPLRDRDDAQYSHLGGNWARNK
T2 sequence (P20963 22-164, chain 4 of 4): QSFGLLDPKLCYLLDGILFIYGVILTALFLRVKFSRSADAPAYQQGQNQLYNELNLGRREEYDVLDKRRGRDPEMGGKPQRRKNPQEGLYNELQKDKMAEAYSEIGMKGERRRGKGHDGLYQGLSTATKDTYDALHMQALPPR

Binder | CD25 Induction EC50 [nM] | CD69 Induction EC50 [nM] | T cell Proliferation in PBMC EC50 [nM]
B1 | 0.116 | 0.074 | 0.074
B2 | 0.039 | 0.021 | 0.048
B3 | 0.01 | 0.006 | 0.006
B4 | 0.117 | 0.087 | 0.063
B5 | 0.011 | 0.007 | 0.009
B6 | 0.011 | 0.005 | 0.006
B7 | 0.094 | 0.062 | 0.044
B8 | 0.006 | 0.007 | 0.007
B9 | 0.03 | 0.022 | 0.023
B10 | 0.042 | 0.027 | 0.004
B11 | 0.092 | 0.091 | 0.089

What follows are binders tested against T1, human CD33 (assay: flow cytometry titration, U-937 cells).
Experimental: as §1

Binder | Kd [nM]
B1 | 6.2
B2 | 1.6
B3 | 1.7
B4 | 8.9
B5 | 2.2
B6 | 0.6
B7 | 1.7
B8 | 0.9
B9 | 0.5
B10 | 0.9
B11 | 7.1
B12 | 1.8

These binders were tested against T1, human CD33 (assay: flow cytometry titration, KG-1 cells).
Experimental: as §1

Binder | Kd [nM]
B1 | 1.2
B2 | 0.5
B3 | 1
B4 | 1.8
B5 | 0.3
B6 | 0.5
B7 | 0.5
B8 | 0.3
B9 | 0.3
B10 | 0.3
B11 | 0.9
B12 | 0.5

What follows are binders tested against T2, human CD3 (assay: flow cytometry, human T-cells).

Binder | Kd [nM]
B1 | 69.5
B2 | 86.3
B3 | 1.9
B4 | 81.9
B5 | 2.4
B6 | 2.6
B7 | 79.3
B8 | 1.3
B9 | 55.7
B10 | 69.8
B11 | 94.2

The binders below were run against T1, human CD33 (assay: cell-based or functional assay).

Binder | EC50 on HL-60 (cytotoxicity) [nM]
B1 | 0.0027
B2 | 0.0016
B3 | 0.007
B4 | 0.0036
B5 | 0.0068
B6 | 0.0059
B7 | 0.0018
B8 | 0.0018
B9 | 0.0011
B10 | 0.0005
B11 | 0.0019
B12 | 0.0018

What follows are binders tested against T2, human CD3 (assay: flow cytometry titration, T cells (human CD3+)).

Binder | Kd [nM]
B1 | 69.5
B2 | 86.3
B3 | 1.9
B4 | 81.9
B5 | 2.4
B6 | 2.6
B7 | 79.3
B8 | 1.3
B9 | 55.7
B10 | 69.8
B11 | 94.2
B12 | 2.4
